The values that follow come from publication PMC12041195 (Nature Communications, 2025).

This assay has as its target trimeric HA protein of A/Victoria/361/2011 (H3N2) (Influenza A virus A/Victoria/361/2011 …, UniProt A0A097PF39, strain). Kind of assay: negative-stain electron microscopy.

B1: IgM-F045-092 (antibody, V domains shown)
VH: EVQLVESGAEVKKPGSSVKVSCRASGTFYKYAINWVRQAPGQGLEWMGGIIPFFGTTNYAQKFQGRLTITADGSTNTAYMQLDSLRSEDTAVYYCAGPSITESHYCLDCAAKDYYYGLDVWGQGTTVTVSS
VL: not shown
Turning to B1, the binding result is recorded as “binds”.
